For assay [1], the target named is SNAP-GAL2R (wild type) (human) (UniProt O43603). The assay can be described thus: AlphaScreen or HTRF; competition: HEK293 cells with SNAP-GAL1R or SNAP-GAL2R labelled with SNAP-Lumi4-Tb; 50 nM galanin-A2 with increasing concentrations of unlabeled ligand, 1 h at room temperature; Ki by the Cheng-Prusoff equation. (In general: Bead proximity is the source of the signal in Alpha formats.)

Assay [2] shares this target.
The subject of another assay is GAL2R over GAL1R. The following applies: cited from earlier work. An excerpt: In contrast, L^4P contacts with equivalent ECL2 residues with weaker hydrophobicity (L169^ECL2, A170^ECL2, and L172^ECL2) in GAL2R (Fig. 3e, Supplementary Fig. 4b). The structural observation is coincident with our peptide truncation assay.
The target of assay [3] is SNAP-GAL1R (wild type) (human) (UniProt P47211). Briefly: AlphaScreen or HTRF; competition: HEK293 cells with SNAP-GAL1R or SNAP-GAL2R labelled with SNAP-Lumi4-Tb; 50 nM galanin-A2 with increasing concentrations of unlabeled ligand, 1 h at room temperature; Ki by the Cheng-Prusoff equation.
For assay [4] the target is unchanged.
The target in assay [5] is SNAP-GAL2R (wild type) (human) (UniProt O43603). The source holds these as a separate data set.
Assay [6] has the same target. The source holds these as a separate data set.
Assay [7] addresses T1, N-terminal-SNAP-tagged GAL1R, wild type (human, UniProt P47211 1-349, Lumi4-Tb on the SNAP tag).
T1 construct: also called SNAP-GAL1R; GAL1R WT; source: HEK293, transfected, on cells; not shown: SNAP tag, N-terminal, kept
T1 sequence (looked up): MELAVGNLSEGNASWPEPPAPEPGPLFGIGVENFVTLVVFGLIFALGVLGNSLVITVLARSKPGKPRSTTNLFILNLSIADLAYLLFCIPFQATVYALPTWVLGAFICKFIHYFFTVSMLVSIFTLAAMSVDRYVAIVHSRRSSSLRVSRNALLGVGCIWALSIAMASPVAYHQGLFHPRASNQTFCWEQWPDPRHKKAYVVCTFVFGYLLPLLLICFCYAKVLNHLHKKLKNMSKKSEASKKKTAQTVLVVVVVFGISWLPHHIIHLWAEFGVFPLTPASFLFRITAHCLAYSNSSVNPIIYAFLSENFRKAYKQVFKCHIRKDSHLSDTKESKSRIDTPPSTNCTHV
Briefly: AlphaScreen or HTRF; competition binding: HEK293 cells transfected with WT SNAP-tagged receptor and labelled with SNAP-Lumi4-Tb, incubated with 50 nM galanin-A2 and increasing concentrations of the unlabeled ligand, 1 h at room temperature; Ki from IC50 by the Cheng-Prusoff equation. Particulars: one partner purified.

For assay [8], the target named is T2, N-terminal-SNAP-tagged GAL2R, wild type (human, UniProt O43603 1-387, Lumi4-Tb on the SNAP tag).
T2 construct: also called SNAP-GAL2R; GAL2R WT; source: HEK293, transfected, on cells; not shown: SNAP tag, N-terminal, kept
T2 sequence (looked up): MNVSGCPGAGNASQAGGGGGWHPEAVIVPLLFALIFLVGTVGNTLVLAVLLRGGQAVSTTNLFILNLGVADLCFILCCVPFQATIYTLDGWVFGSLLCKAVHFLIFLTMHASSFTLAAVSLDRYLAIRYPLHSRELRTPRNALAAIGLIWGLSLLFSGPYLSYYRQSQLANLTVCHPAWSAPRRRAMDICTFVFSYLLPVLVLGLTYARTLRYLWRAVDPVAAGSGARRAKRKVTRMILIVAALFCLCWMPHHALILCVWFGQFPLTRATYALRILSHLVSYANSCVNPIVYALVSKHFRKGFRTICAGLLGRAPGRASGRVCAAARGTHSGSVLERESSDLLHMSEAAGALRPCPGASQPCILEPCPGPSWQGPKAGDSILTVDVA
The description is as above. The following applies: one partner purified.

“And” between values parts separate entries of the source, which are not always exact repeats. Identical values can stand only once. Bounds are passed on as bounds.

One may read the Ki as the equilibrium dissociation constant of an inhibitor or competing ligand from its target. Take galanin (1-16) (peptide): in assay [1], the Ki is 20.1 nM and 22.6 nM and 15.6 nM. Besides, the calcium assay EC50 (peptide on WT receptor; HEK293/Gα16 cells) in assay [2] is 23.5 nM and 12.5 nM and 12.6 nM.

Consider “GALP (1–60): galanin-related peptide, galanin homologue; amino acids 9–21 identical to first 13 amino acids of galanin (APAHRGRGGWTLNSAGYLLGPVLHLPQMGDQDGKRETALEILDLWKAIDGLPYSHPPQPS; Galanin-like peptide; UniProt Q9UBC7 25-84, looked up)”, for which, in the assay on GAL2R over GAL1R, the “affinity for GAL2R versus GAL1R” value was “higher affinity for GAL2R over GAL1R”.

Take galanin (1-16, Y9A) (peptide): the Ki in [1] was greater than 100000 nM; in assay [3], 2880 nM and 2850 nM and 1690 nM. In addition, the calcium assay EC50 (peptide on WT receptor; HEK293/Gα16 cells) in [2] and in assay [4] was greater than 10000 nM throughout.

Regarding “spexin (mature, 14 amino acids) (peptide)”, the calcium assay EC50 (spexin) in [5] was 327 nM and 178 nM and 81.4 nM.

galanin (1-13) (peptide): the Ki in assay [1] was 41.4 nM and 11.1 nM and 17.8 nM; in assay [3], 343 nM and 409 nM and 314 nM. In addition, the calcium assay EC50 (peptide on WT receptor; HEK293/Gα16 cells) was 12.8 nM and 14.6 nM and 69 nM in [2]; 324 nM and 328 nM and 268 nM in [4].

Regarding “galanin (full length, unlabeled) (peptide)”, the calcium assay EC50 (galanin; HEK293/Gα16 cells) in assay [6] was 35.3 nM and 27.2 nM and 64.9 nM. The calcium assay EC50 (peptide on WT receptor; HEK293/Gα16 cells) in assay [2] is 8.27 nM and 11.6 nM.

On to “ARM1896: galanin segment 2-11 (WTLNSAGYLL; Galanin; UniProt P22466 34-43, looked up, fragment)”, for which the “selectivity for GAL1R” value in the assay on GAL2R over GAL1R is “low selectivity”.

In the case of G1-truncated galanin (2-16) (peptide), the Ki was 80.1 nM and 42.6 nM and 27 nM in assay [1]; greater than 10000 nM in [3]. The calcium assay EC50 (peptide on WT receptor; HEK293/Gα16 cells) in [2] was 50.1 nM and 12.3 nM; in [4] it was 3160 nM and 3440 nM and 3340 nM.

B1: Gal (2-16) (peptide)
peptide: WTLNSAGYLLGPHAV
notes: numbers count on: the mature protein
Take B1: the Ki is greater than 10000 nM in assay [7] and 49.9 nM in assay [8].

B2: Gal (1-13) (peptide)
peptide: GWTLNSAGYLLGP
notes: as for B1
In the case of B2, the results for the Ki in assay [7] and in assay [8] were 356 nM and 23.5 nM, respectively.

B3: Gal (1-16, Y9A) (peptide)
peptide: GWTLNSAGALLGPHAV
notes: as for B1
B3: the Ki is 2480 nM in assay [7] and greater than 100000 nM in assay [8].
